Holding throughout (experiment): cell-based or functional assay
For experiment [1], the target named is HA of H3N2 A/Brisbane/10/2007 (influenza A virus).
The target of experiment [2] is HA of H3N2 A/Wisconsin/67/2005 (influenza A virus).
Experiment [3] addresses HA of H5N1 A/Vietnam/1194/04 (influenza A virus).
In experiment [4] the target is HA of H7N3 A/NIBRG/60 (A/mallard/NL/12/00) (influenza A virus).
Experiment [5] addresses hemagglutinin (HA) of influenza virus B/Brisbane/60/08 (Victoria) (influenza B virus).
Experiment [6] addresses hemagglutinin (HA) of influenza virus B/Florida/04/06 (Yamagata) (influenza B virus).
The target of experiment [7] is hemagglutinin (HA) of influenza virus B/Harbin/7/94 (Yamagata) (influenza B virus).
Experiment [8] addresses hemagglutinin (HA) of influenza virus B/Lee/40 (Old) (influenza B virus) (UniProt P03460).
Experiment [9] deals with hemagglutinin (HA) of influenza virus B/Malaysia/2506/04 (Victoria) (influenza B virus).
Experiment [10] concerns the target hemagglutinin (HA) of influenza virus H1N1 A/Puerto Rico/8/34-MA (influenza A virus).
Experiment [11] has as its target hemagglutinin (HA) of influenza virus H3N2 A/HK/1/68-MA (influenza A virus).
Experiment [12] deals with hemagglutinin (HA) of influenza virus H5N1 A/Vietnam/1194/04 (influenza A virus).
Experiment [13] deals with hemagglutinin (HA) of influenza virus H7N3 A/NIBRG/60 (A/mallard/Netherlands/12/00) (influenza A virus).
The target of experiment [14] is hemagglutinin (HA) of influenza A/Brisbane/10/07 (H3N2) (influenza A virus A/Brisbane/10/07 (H3N2)).
In experiment [15] the target is hemagglutinin (HA) of influenza A/California/07/09 (H1N1) (influenza A virus A/California/07/09 (H1N1)).
Experiment [16] concerns the target hemagglutinin (HA) of influenza A/New Caledonia/20/99 (H1N1) (influenza A virus A/New Caledonia/20/99 (H1N1)).
Experiment [17] addresses hemagglutinin (HA) of influenza A/Vietnam/1194/04 (H5N1) (influenza A virus A/Vietnam/1194/04 (H5N1)).
For experiment [18], the target named is hemagglutinin (HA) of influenza A/Hong Kong/1/68 (H3N2) (influenza A virus A/Hong Kong/1/68 (H3N2)) (UniProt Q91MA7).
Experiment [19] concerns the target hemagglutinin (HA) of influenza virus H3N2 A/Brisbane/10/07 (influenza A virus).
The target of experiment [20] is hemagglutinin (HA) of influenza virus H7N9 A/Anhui/1/13 (influenza A virus).
Experiment [21] addresses HA of H1N1 A/New Caledonia/20/1999 (influenza A virus).
In experiment [22] the target is HA of H1N1 A/Puerto Rico/8/34-MA (influenza A virus).
Experiment [23] deals with HA of H5N1 A/PR8 H5N1 HK97 (influenza A virus).
Experiment [24] concerns the target HA of B/Florida/04/2006 (Yamagata) (influenza B virus).
The target in experiment [25] is HA of H1N1 A/Brisbane/59/07 (influenza A virus).

Where a chain is given by its changes, count along the chain named. Where only a bound is given, the exact number is not on record here.

B1: SD2020 (VHH)
VHH: EVQLVESGGGLVQPGGSLRLSCAAAGGAFNRQLVAWFRQAPGKKREFVATVTTSGGSSYYADSVKGRFTISRDTAKNTVALQMNSLKAEDAAVYYCAARDSFTVAPYYPPESYAYWGQGTQVTVSS
Take B1: the VNA titer was 9.3 nM in experiment [1], 304 nM in [2], greater than 1000 nM in [3] and greater than 1000 nM in [4].

B2: MD1224 (VHH)
chain: EVQLVESGGGLVQPGGSLKLSCAASGFTFSTSWMYWLRQAPGKGLEWVSVINTDGGTYYADSVKDRFTISRDNAKDTLYLQMSSLKSEDTAVYYCAKDWGGPEPTRGQGTQVTVSSAAAGGGGSGGGGSGGGGSGGGGSGGGGSGGGGSGGGGSEVQLVESGGGLVQPGGSLKLSCAASGFTFSTSWMYWLRQAPGKGLEWVSVINTDGGTYYADSVKDRFTISRDNAKDTLYLQMSSLKSEDTAVYYCAKDWGGPEPTRGQGTQVTVSS
With B2, the neutralization titer in experiment [5] was found to be 4.1 nM; in [6], 0.8 nM; in experiment [7], 4.5 nM; in experiment [8], 33 nM; in experiment [9], 2.7 nM.

B3: MD2404 (bispecific antibody)
chain: EVQLVESGGGLVQPGGSLRLSCAVSISIFDIYAMDWYRQAPGKQRDLVATSFRDGSTNYADSVKGRFTISRDNAKNTLYLQMNSLKPEDTAVYLCHVSLYRDPLGVAGGMGVYWGKGALVTVSSAAAGGGGSGGGGSGGGGSGGGGSGGGGSGGGGSGGGGSEVQLVESGGGLVQAGGSLKLSCAASGRTYAMGWFRQAPGKEREFVAHINALGTRTYYSDSVKGRFTISRDNAKNTEYLEMNNLKPEDTAVYYCTAQGQWRAAPVAVAAEYEFWGQGTQVTVSSLINLEGGGGSGGGGSGGGGSGGGGSGGGGSGGGGSGGGGSPAGEVQLVESGGGLVQPGGSLKLSCAASGFTFSTSWMYWLRQAPGKGLEWVSVINTDGGTYYADSVKDRFTISRDNAKDTLYLQMSSLKSEDTAVYYCAKDWGGPEPTRGQGTQVTVSSAAAGGGGSGGGGSGGGGSGGGGSGGGGSGGGGSGGGGSEVQLVESGGGLVQPGGSLKLSCAASGFTFSTSWMYWLRQAPGKGLEWVSVINTDGGTYYADSVKDRFTISRDNAKDTLYLQMSSLKSEDTAVYYCAKDWGGPEPTRGQGTQVTVSS
Take B3: the average neutralization titer in [6] is 2.1 nM; in [8] it was 30.3 nM; in experiment [10], 12.2 nM; in [11] it was 57.7 nM; in experiment [12], 20.4 nM; in experiment [13] it was 34.3 nM.

B4: SD3021 (VHH)
VHH: EVQLVESGGGVVQPGGSLRLSCAASISIFDIYAMDWYRQAPGKQRELVAVSFRDGSTYYADSVKGRFTISRDNSKNTLYLQMNSLRPEDTAVYLCHVSLYRDPLGVAGGLGVYWGKGALVTVSS
On to B4, for which the VNA IC50 is greater than 1 µM in experiment [14], 0.003 µM in experiment [15], 0.003 µM in experiment [16] and 0.015 µM in experiment [17].

B5: SD3022 (VHH)
VHH: B4 VHH with L110I
For the molecule B5, the VNA IC50 in [14] is 0.632 µM; in experiment [15] it was 0.003 µM; in experiment [16] it was 0.008 µM; in experiment [17], 0.02 µM.

B6: SD3030 (VHH)
VHH: B4 VHH with V11L, A24V, E46D, V50T, Y58N, S74A, R86K, L110I
With B6, the VNA IC50 in experiment [14] turned out to be 0.274 µM; in experiment [15] it was 0.003 µM; in experiment [18], 0.126 µM; in [16], 0.008 µM; in experiment [17], 0.02 µM.

B7: SD3029 (VHH)
VHH: B4 VHH with V11L, A24V, E46D, V50T, Y58N, S74A, R86K
Consider B7, for which the VNA IC50 is 0.632 µM in [14]; 0.003 µM in experiment [15]; 0.251 µM in experiment [18]; 0.004 µM in experiment [16]; 0.02 µM in experiment [17].

B8: MD1222 (bispecific antibody)
chain: EVQLVESGGGLVQPGGSLRLSCAATGFTLENKAIGWFRQTPGSEREGVLCISKSGSWTYYTDSMRGRFTISRDNAENTVYLQMDSLKPEDTAVYYCATTTAGGGLCWDGTTFSRLASSWGQGTQVTVSSAAAGGGGSGGGGSGGGGSGGGGSGGGGSGGGGSGGGGSEVQLVESGGGLVQPGGSLKLSCAASGFTFSTSWMYWLRQAPGKGLEWVSVINTDGGTYYADSVKDRFTISRDNAKDTLYLQMSSLKSEDTAVYYCAKDWGGPEPTRGQGTQVTVSS
For the molecule B8, the neutralization titer in experiment [5] worked out at 3 nM; in experiment [6], 2.1 nM; in experiment [7], 7.2 nM; in experiment [8] it was 12.7 nM; in experiment [9], 3.6 nM.

B9: MD2313 (bispecific antibody)
chain: EVQLVESGGGLVQAGDSLRISCAASGRTLSIYSMGWFRQAPGKEREFVATIGWNSGRTFYPDSLKGRFTISRDNARNTLYLQMNNLRPEDTAVYYCAAAKGPLRLSSQADYWGQGTQVTVSSGGGGSGGGGSEVQLVESGGGLVQAGDSLRISCAASGRTLSIYSMGWFRQAPGKEREFVATIGWNSGRTFYPDSLKGRFTISRDNARNTLYLQMNNLRPEDTAVYYCAAAKGPLRLSSQADYWGQGTQVTVSSGGGGSGGGGSEVQLVESGGGLVQPGGSLRLSCAATGFTLENKAIGWFRQTPGSEREGVLCISKSGSWTYYTDSMRGRFTISRDNAENTVYLQMDSLKPEDTAVYYCATTTAGGGLCWDGTTFSRLASSWGQGTQVTVSS
On to B9, for which the average neutralization titer was 7.7 nM in experiment [19], greater than 1000 nM in experiment [12], 6.5 nM in experiment [13] and 21.7 nM in experiment [20].

B10: SD1076 (VHH)
VHH: EVQLVESGGGLVQAGGSLTLSCAGSGFAFSIATMGWYRQAPGKQRELVADITSGGSTNYADSVKGRFTISRDNAKNTVYLQMNSLKPEDTAVYYCNADSLATGWRQYSYWGKGTQVTVSS
Consider B10, for which the VNA titer is 22.1 nM in experiment [21]; 8.7 nM in experiment [22]; greater than 1000 nM in [1]; greater than 1000 nM in experiment [2]; 66.8 nM in experiment [23]; 84.7 nM in experiment [3]. Also, the VNA titer in experiment [4] was greater than 1000 nM.

B11: SD1070 (VHH)
VHH: EVQLVESGGGLVQAGGSLRISCAASGRTFSIYSMGWFRQAPGKEREFVATIGWNSGRTFYADSMKERFTISADNARNTLYLQMNSLKFEDTAVYYCAAAKGPLRLSSQADYWGQGTQVTVSS
For the molecule B11, the VNA titer in [24] is greater than 1000 nM; in experiment [21], greater than 1000 nM; in [22], greater than 1000 nM; in experiment [1] it was 15.3 nM; in experiment [2], greater than 1000 nM; in [3], greater than 1000 nM. Further, the VNA titer in [4] turned out to be 366 nM.

B12: SD1049 (VHH)
VHH: EVQLVESGGGLVQAGGSLRLSCAASGRTLSLYSVGWFRQAPGKEREFVATIGWNSGRTFYVDSMKGRFTISRDNAKNTVYLQMNDLKVEDTAVYYCAAAKGPLRLSNQADYWGQGTQVTVSS
Regarding B12, the VNA titer in [25] is greater than 1000 nM; in experiment [21], greater than 1000 nM; in experiment [1], 19.1 nM; in experiment [2] it was greater than 1000 nM; in [3] it was greater than 1000 nM; in experiment [4] it was 115 nM.

Values taken from patent US20190359693A1.
